Results reported in publication PMC6423188, “HYNIC and DOMA conjugated radiolabeled bombesin analogs as receptor-targeted probes for scintigraphic detection of breast tumor” (EJNMMI Research, 2019).

How the values were obtained:
physchem = assay type: physicochemical; details: pH 7.4
Procedure: Lipophilicity of the HPLC-purified radiopeptide analogs was determined through octanol/water partition coefficients, determined at pH 7.4 by measuring the distribution of the HPLC purified radiolabeled peptides in 1-octanol and PBS. Then, 50 μL HPLC purified ^99mTc-BN1/^99mTc-BN2/^99mTc-BN3/^99mTc-BN4/^99mTc-BNS with 100 μCi of radiolabeled compound in PBS was added to a to a centrifuge tube containing 1 mL n-octanol and 1 mL PBS (0.025 M, pH 7.4). The tube was vortexed at room temperature for 2 min and they are centrifuged at 5000 rpm for 5 min to ensure complete separation of layers. Further, 100 μL of each phase was transferred into a separate pre-weighed vial and measured in the well γ-counter. The ratio of octanol layer counts to aqueous layer counts was expressed as the distribution coefficient (D, the appropriate descriptor for ionizable compounds) and logD was used for determination of lipophilicity. Counts per unit weight of the sample were calculated, and logD value as calculated as follows:
log10D = log10 [(cpm in octanol – cpm in background) / (cpm in buffer – cpm in background)]

[1] = test system: MDA-MB-231 tumor-bearing mice; assay: In vivo biodistribution; design: species or system mouse; details: mean ± SD, n = 3; for Tumor uptake: MDA-MB-231 tumor
Procedure: All animal experiments were done according to the CSIR-IICB Animal Ethics Committee’s rules and regulation. Forty-eight hours before tumor cell implantation, an immunosuppressive drug (cyclosporine-A) was given intraperitoneal (i.p) at a concentration of 30 mg/kg/day. After that, MDA-MB-231 cells (5 × 10^6) 0.2 mL were implanted subcutaneously into the left flanks of the hind leg of BALB/c mice. Thereafter, the same dose of cyclosporine was given i.p. daily up to 2 weeks. Two weeks after inoculation of the tumor cells, when tumors reached ~ 0.5 cm in mean diameter, the tumor-bearing mice were used for biodistribution and imaging studies. Animals were monitored daily and their weights were recorded. Control group of mice received only 0.9 wt% saline. After cell implantation, the growth rate of the breast tumor followed a satisfactory pattern of spheroid shape and tumors are palpable within 2 to 4 weeks. MDA-MB-231 cell implanted mice tumor models were used for biodistribution and planar imaging studies of these radiolabeled new bombesin analogs.
In tissue biodistribution studies, tumor-bearing animals were divided into four groups and well hydrated for 1 h by intraperitoneal administration of saline (0.9%, 2 mL). Three animals per groups were used for biodistribution studies. After that, the radiolabeled new bombesin analogs (^99mTc-BN) were injected intravenously in each animal of each group consequently through the tail vein [24–27]. After 5, 30, 60, and 120 min intravenous administrations of radiolabeled analogs, the animals were sacrificed; blood, heart, lung, liver, kidney, stomach, intestine, spleen, pancreas, brain, muscle, and tumor were excised, weighed, and counted for radioactivity. The organ uptake was calculated as a percentage of the injected activity per gram of wet tissue (%IA/g). In order to evaluate whether binding of bombesin analogs to MDA-MB-231 cells in vivo is specific; blocking studies with ^99mTc-labeled bombesin analogs in tumor-bearing mice were carried out. Groups of three animals were injected 0.03 nmol of ^99mTc-labeled BN analogs (2 MBq) with 25 nmol of non-radiolabeled BN peptide. After 60 min and 120 min, mice were sacrificed and the organs were collected. Each organ was weighed and counted in a gamma counter along with activity standard and percentage of injected activity per gram (%IA/g) of tissue was calculated for each type of tissues. Counts were corrected for background radiation and physical decay of the radioactivity. The uptake was expressed in the percentage of injected activity per gram of each organ (%IA/g). Data were analyzed statistically by the t test, with the level of significance set at P < 0.05.

in vitro = in vitro ADME; details: rat
Procedure: An aliquot (100 μL) of ^99mTc-BN1/^99mTc-BN2/^99mTc-BN3/^99mTc-BN4/^99mTc-BNS was added to 1 mL of freshly collected rat serum in centrifuge tube. The mixture was then incubated at 37 °C for 1 h; the serum protein was precipitated by adding 1 mL trichloroacetic acid (10%, V/V). The supernatant and precipitate were separated by centrifugation at 3000 rpm for 5 min. Radioactivities of both the phases were measured separately. The above experimental procedure was repeated three times. The percentage of protein binding was determined as: Plasma protein binding % = (precipitate counts (CPM) / [precipitate counts (CPM) + plasma counts (CPM)]) × 100%.

[2] = 60 min p.i., blocked with excess non-radiolabeled BN peptide

Substance: ^99mTc-HYNIC-Pro-Asp-[Tyr^13Met^14]BN(7-14)NH2 [99mTc-BN2]
- logD (physchem): − 1.78 ± 0.04
- Tumor uptake ([1]; 5 min p.i., i.v.): 0.79 ± 0.12 %IA/g
- Blood uptake ([1]; 5 min p.i., i.v.): 1.03 ± 0.05 %IA/g
- Heart uptake ([1]; 5 min p.i., i.v.): 0.59 ± 0.02 %IA/g
- Intestine uptake ([1]; 5 min p.i., i.v.): 0.73 ± 0.03 %IA/g
- Kidney uptake ([1]; 5 min p.i., i.v.): 2.05 ± 0.10 %IA/g
- Liver uptake ([1]; 5 min p.i., i.v.): 1.47 ± 0.07 %IA/g
- Lung uptake ([1]; 5 min p.i., i.v.): 0.91 ± 0.04 %IA/g
- Muscle uptake ([1]; 5 min p.i., i.v.): 0.24 ± 0.01 %IA/g
- Pancreas uptake ([1]; 5 min p.i., i.v.): 0.95 ± 0.01 %IA/g
- Spleen uptake ([1]; 5 min p.i., i.v.): 0.95 ± 0.04 %IA/g
- Stomach uptake ([1]; 5 min p.i., i.v.): 0.74 ± 0.03 %IA/g
- Urine + urinary bladder uptake ([1]; 5 min p.i., i.v.): 0.56 ± 0.02 %IA/g
- Tumor uptake ([1]; 30 min p.i., i.v.): 1.85 ± 0.05 %IA/g
- Blood uptake ([1]; 30 min p.i., i.v.): 0.78 ± 0.03 %IA/g
- Heart uptake ([1]; 30 min p.i., i.v.): 0.46 ± 0.01 %IA/g
- Intestine uptake ([1]; 30 min p.i., i.v.): 1.05 ± 0.05 %IA/g
- Kidney uptake ([1]; 30 min p.i., i.v.): 4.76 ± 0.20 %IA/g
- Liver uptake ([1]; 30 min p.i., i.v.): 1.23 ± 0.06 %IA/g
- Lung uptake ([1]; 30 min p.i., i.v.): 0.89 ± 0.11 %IA/g
- Muscle uptake ([1]; 30 min p.i., i.v.): 0.20 ± 0.02 %IA/g
- Pancreas uptake ([1]; 30 min p.i., i.v.): 2.07 ± 0.10 %IA/g
- Spleen uptake ([1]; 30 min p.i., i.v.): 0.75 ± 0.03 %IA/g
- Stomach uptake ([1]; 30 min p.i., i.v.): 1.01 ± 0.05 %IA/g
- Urine + urinary bladder uptake ([1]; 30 min p.i., i.v.): 1.92 ± 0.07 %IA/g
- Tumor uptake [1, 2]: 0.78 ± 0.03 %IA/g
- Blood uptake [1, 2]: 0.38 ± 0.01 %IA/g
- Heart uptake [1, 2]: 0.27 ± 0.02 %IA/g
- Intestine uptake [1, 2]: 1.25 ± 0.02 %IA/g
- Kidney uptake [1, 2]: 3.37 ± 0.10 %IA/g
- Liver uptake [1, 2]: 1.09 ± 0.04 %IA/g
- Lung uptake [1, 2]: 0.73 ± 0.04 %IA/g
- Muscle uptake [1, 2]: 0.20 ± 0.02 %IA/g
- Pancreas uptake [1, 2]: 0.85 ± 0.02 %IA/g
- Spleen uptake [1, 2]: 0.45 ± 0.03 %IA/g
- Stomach uptake [1, 2]: 0.70 ± 0.02 %IA/g
- Urine + urinary bladder uptake [1, 2]: 4.50 ± 0.08 %IA/g
- Tumor uptake ([1]; 60 min p.i., i.v.): 0.98 ± 0.04 %IA/g
- Blood uptake ([1]; 60 min p.i., i.v.): 0.35 ± 0.01 %IA/g
- Heart uptake ([1]; 60 min p.i., i.v.): 0.23 ± 0.12 %IA/g
- Intestine uptake ([1]; 60 min p.i., i.v.): 1.46 ± 0.02 %IA/g
- Kidney uptake ([1]; 60 min p.i., i.v.): 3.34 ± 0.16 %IA/g
- Liver uptake ([1]; 60 min p.i., i.v.): 1.01 ± 0.05 %IA/g
- Lung uptake ([1]; 60 min p.i., i.v.): 0.78 ± 0.03 %IA/g
- Muscle uptake ([1]; 60 min p.i., i.v.): 0.18 ± 0.03 %IA/g
- Pancreas uptake ([1]; 60 min p.i., i.v.): 1.08 ± 0.05 %IA/g
- Spleen uptake ([1]; 60 min p.i., i.v.): 0.48 ± 0.02 %IA/g
- Stomach uptake ([1]; 60 min p.i., i.v.): 0.82 ± 0.04 %IA/g
- Urine + urinary bladder uptake ([1]; 60 min p.i., i.v.): 4.54 ± 0.22 %IA/g
- Tumor uptake ([1]; 120 min p.i., i.v.): 0.54 ± 0.02 %IA/g
- Blood uptake ([1]; 120 min p.i., i.v.): 0.07 ± 0.01 %IA/g
- Heart uptake ([1]; 120 min p.i., i.v.): 0.12 ± 0.01 %IA/g
- Intestine uptake ([1]; 120 min p.i., i.v.): 0.18 ± 0.01 %IA/g
- Kidney uptake ([1]; 120 min p.i., i.v.): 2.45 ± 0.12 %IA/g
- Liver uptake ([1]; 120 min p.i., i.v.): 0.53 ± 0.02 %IA/g
- Lung uptake ([1]; 120 min p.i., i.v.): 0.42 ± 0.02 %IA/g
- Muscle uptake ([1]; 120 min p.i., i.v.): 0.12 ± 0.04 %IA/g
- Pancreas uptake ([1]; 120 min p.i., i.v.): 0.89 ± 0.04 %IA/g
- Spleen uptake ([1]; 120 min p.i., i.v.): 0.24 ± 0.11 %IA/g
- Stomach uptake ([1]; 120 min p.i., i.v.): 0.41 ± 0.02 %IA/g
- Urine + urinary bladder uptake ([1]; 120 min p.i., i.v.): 5.55 ± 0.03 %IA/g
- Percentage of plasma protein binding (in vitro): 41.23%
